From US20200199533A1 (KING ABDULLAH UNIVERSITY OF SCIENCE AND TECHNOLOGY, published 2020)

Experiments:
[1] = target: T1, CD34, native glycoprotein from human HSPCs (KG1a, CD34^pos-BM, CD34^pos-UCB, CD34^pos-AML) (human, UniProt P28906 32-385, native glycosylation (about 120-130 kDa form); sialylated O-glycans and tyrosine sulfation are shown to matter for selectin binding); experiment: SPR; CD34 captured from CD34^pos-BM lysate on 563 mAb; apparent rate constant, estimate
T1 construct: mature; also called E-selL CD34
T1 sequence (looked up): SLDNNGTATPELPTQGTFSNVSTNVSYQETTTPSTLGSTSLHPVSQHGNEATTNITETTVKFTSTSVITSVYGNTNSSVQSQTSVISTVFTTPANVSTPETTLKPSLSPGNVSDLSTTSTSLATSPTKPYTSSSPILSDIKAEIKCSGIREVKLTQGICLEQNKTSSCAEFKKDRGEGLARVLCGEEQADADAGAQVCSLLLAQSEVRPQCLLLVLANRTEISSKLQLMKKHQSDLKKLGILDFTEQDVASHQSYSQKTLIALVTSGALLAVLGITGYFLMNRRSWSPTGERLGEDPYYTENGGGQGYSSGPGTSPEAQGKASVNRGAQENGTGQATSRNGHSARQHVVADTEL

[2] = target: CD44 (HCELL), native glycoprotein from human HSPCs (KG1a, CD34^pos fraction) (human) (UniProt P16070); experiment: SPR; CD44 captured from KG1a lysate on Hermes-3-mAb, E-Ig injected, 150 mM NaCl; apparent rate constant; mean ± SEM
[3] = target: CD44 (HCELL), native glycoprotein from human HSPCs (KG1a, CD34^pos fraction) (human) (UniProt P16070); experiment: SPR; CD44 captured from KG1a lysate on Hermes-3-mAb, E-Ig injected, 150 mM NaCl; apparent rate constant; 3rd experiment
[4] = target: T1, CD34, native glycoprotein from human …; experiment: SPR; CD34 captured from KG1a lysate on 563-mAb, E-Ig injected, 150 mM NaCl; apparent rate constant; 2nd experiment
[5] = target: T1, CD34, native glycoprotein from human …; experiment: SPR; CD34 captured from KG1a lysate on 563-mAb, E-Ig injected, 150 mM NaCl; apparent rate constant; 3rd experiment
[6] = target: CD44 (HCELL), native glycoprotein from human HSPCs (KG1a, CD34^pos fraction) (human) (UniProt P16070); experiment: SPR; CD44 captured from KG1a lysate on Hermes-3-mAb, E-Ig injected (3.9-2000 nM), 150 mM NaCl; steady-state model; 1st experiment
[7] = target: T2, PSGL-1, native glycoprotein from human HSPCs (KG1a, CD34^pos-BM) (human, UniProt Q14242 42-412, native glycosylation and tyrosine sulfation); experiment: SPR; PSGL-1 captured from KG1a lysate on KPL-1-mAb, E-Ig injected, 150 mM NaCl; apparent rate constant; 2nd experiment
T2 construct: mature; also called P-selectin glycoprotein ligand-1
T2 sequence (looked up): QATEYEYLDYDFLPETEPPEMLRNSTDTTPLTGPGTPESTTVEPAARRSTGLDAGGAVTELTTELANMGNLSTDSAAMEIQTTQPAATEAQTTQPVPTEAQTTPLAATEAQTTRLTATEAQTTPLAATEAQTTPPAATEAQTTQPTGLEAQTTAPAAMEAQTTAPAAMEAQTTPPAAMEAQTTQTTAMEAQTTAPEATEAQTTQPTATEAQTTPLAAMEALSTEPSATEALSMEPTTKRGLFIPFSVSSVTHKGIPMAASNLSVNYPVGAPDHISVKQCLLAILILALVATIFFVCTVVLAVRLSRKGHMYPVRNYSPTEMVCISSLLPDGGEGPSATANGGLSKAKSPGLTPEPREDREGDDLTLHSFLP

[8] = target: T3, CD43, native glycoprotein from KG1a cells (human, UniProt P16150 20-400, native glycosylation); experiment: SPR; CD43 captured from KG1a lysate on polyclonal CD43 Ab, E-Ig injected, 150 mM NaCl; apparent rate constant; mean ± SEM
T3 construct: mature
T3 sequence (looked up): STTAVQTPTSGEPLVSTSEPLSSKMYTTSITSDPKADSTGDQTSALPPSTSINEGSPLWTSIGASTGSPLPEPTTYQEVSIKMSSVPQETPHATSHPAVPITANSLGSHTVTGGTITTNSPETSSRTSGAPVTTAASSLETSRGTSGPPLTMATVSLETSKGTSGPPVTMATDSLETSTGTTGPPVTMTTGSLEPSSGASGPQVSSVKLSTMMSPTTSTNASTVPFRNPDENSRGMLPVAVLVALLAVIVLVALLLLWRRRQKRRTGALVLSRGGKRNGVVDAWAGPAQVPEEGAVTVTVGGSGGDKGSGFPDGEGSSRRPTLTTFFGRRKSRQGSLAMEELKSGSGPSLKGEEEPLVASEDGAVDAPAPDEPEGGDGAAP

[9] = target: T2, PSGL-1, native glycoprotein from human …; experiment: SPR; PSGL-1 captured from KG1a lysate on KPL-1-mAb, E-Ig injected (3.9-2000 nM), 150 mM NaCl; steady-state model; 3rd experiment
[10] = target: T3, CD43, native glycoprotein from KG1a …; experiment: SPR; CD43 captured from KG1a lysate on polyclonal CD43 Ab, E-Ig injected (3.9-2000 nM), 150 mM NaCl; steady-state model; 2nd experiment
[11] = target: CD44 (HCELL), native glycoprotein from human HSPCs (KG1a, CD34^pos fraction) (human) (UniProt P16070); experiment: SPR, decay after injection of E-Ig (177 nM, 1 mM CaCl2) over CD44 captured on Hermes-3; apparent constant that includes loss of CD44 from the mAb, s^-1 as in paragraph 58

Sequence of CD44 (HCELL), native glycoprotein from human HSPCs (KG1a, CD34^pos fraction) (human) (P16070 21-742): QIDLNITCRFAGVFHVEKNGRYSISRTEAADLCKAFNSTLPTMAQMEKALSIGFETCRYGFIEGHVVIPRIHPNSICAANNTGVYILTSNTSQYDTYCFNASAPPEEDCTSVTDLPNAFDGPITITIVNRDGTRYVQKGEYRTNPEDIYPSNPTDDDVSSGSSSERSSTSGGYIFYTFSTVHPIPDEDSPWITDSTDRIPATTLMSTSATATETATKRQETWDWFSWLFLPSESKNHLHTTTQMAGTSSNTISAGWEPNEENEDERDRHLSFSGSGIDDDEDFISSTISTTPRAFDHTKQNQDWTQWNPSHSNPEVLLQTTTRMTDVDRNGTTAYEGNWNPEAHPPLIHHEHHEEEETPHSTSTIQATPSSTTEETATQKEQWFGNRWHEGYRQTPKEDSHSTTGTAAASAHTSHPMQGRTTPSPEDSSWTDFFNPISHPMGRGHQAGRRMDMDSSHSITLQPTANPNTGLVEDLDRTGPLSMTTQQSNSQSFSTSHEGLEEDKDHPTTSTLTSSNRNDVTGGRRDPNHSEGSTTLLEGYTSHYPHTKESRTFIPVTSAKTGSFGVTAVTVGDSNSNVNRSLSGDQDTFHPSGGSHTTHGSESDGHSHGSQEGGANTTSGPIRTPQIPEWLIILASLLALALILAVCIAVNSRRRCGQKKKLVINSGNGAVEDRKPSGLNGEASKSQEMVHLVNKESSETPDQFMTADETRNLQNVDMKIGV

B1: recombinant E-selectin human immunoglobulin chimeric protein (Fc fusion)
chain: WSYNTSTEAMTYDEASAYCQQRYTHLVAIQNKEEIEYLNSILSYSPSYYWIGIRKVNNVWVWVGTQKPLTEEAKNWAPGEPNNRQKDEDCVEIYIKREKDVGMWNDERCSKKKLALCYTAACTNTSCSGHGECVETINNYTCKCDPGFSGLKCEQIVNCTALESPEHGSLVCSHPLGNFSYNSSCSISCDRGYLPSSMETMQCMSSGEWSAPIPACNVVECDAVTNPANGFVECFQNPGSFPWNTTCTFDCEEGFELMGAQSLQCTSSGNWDNEKPTCKAVTCRAVRQPQNGSVRCSHSPAGEFTFKSSCNFTCEEGFMLQGPAQVECTTQGQWTQQIPVCEAFQCTALSNPERGYMNCLPSASGSFRYGSSCEFSCEQGFVLKGSKRLQCGPTGEWDNEKPTCEAVRCDAVHQPPKGLVRCAHSPIGEFTYKSSCAFSCEEGFELHGSTQLECTSQGQWTEEVPSCQVVKCSSLAVPGKINMSCSGEPVFGTVCKFACPEGWTLNGSAARTCGATGHWSGLLPTCEAPTESNIP
- kon [1]: ~728 M⁻¹ s⁻¹
- koff [2]: 0.00019 s⁻¹
- kon [2]: 903 M⁻¹ s⁻¹
- koff [3]: 0.000273 s⁻¹
- kon [3]: 1280 M⁻¹ s⁻¹
- koff [4]: 0.00016 s⁻¹
- kon [4]: 597 M⁻¹ s⁻¹
- koff [5]: 0.000331 s⁻¹
- Kd [6]: 234 nM
- koff [7]: 0.000165 s⁻¹
- kon [7]: 797 M⁻¹ s⁻¹
- koff [8]: 0.00045 s⁻¹
- Kd [9]: 229 nM
- Kd [10]: 376 nM
- koff-apparent [11]: 0.00019 s⁻¹
